Results taken from article PMC8533642 (Journal of medicinal chemistry, 2021).
Square brackets hold non-standard residues; d marks the D form. dPhe(4-I) = N[C@H](Cc1ccc(I)cc1)C(=O)O; 2Nal = N[C@@H](Cc1ccc2ccccc2c1)C(=O)O; d2Nal = N[C@H](Cc1ccc2ccccc2c1)C(=O)O

Key:
[1] = biological target: mouse melanocortin-1 receptor (mouse) (UniProt Q01727)
[2] = biological target: mouse melanocortin-3 receptor (mouse) (UniProt P33033)
[3] = biological target: mouse melanocortin-4 receptor (mouse) (UniProt P56450)
Chain of mouse melanocortin-4 receptor (mouse) (P56450 whole entry): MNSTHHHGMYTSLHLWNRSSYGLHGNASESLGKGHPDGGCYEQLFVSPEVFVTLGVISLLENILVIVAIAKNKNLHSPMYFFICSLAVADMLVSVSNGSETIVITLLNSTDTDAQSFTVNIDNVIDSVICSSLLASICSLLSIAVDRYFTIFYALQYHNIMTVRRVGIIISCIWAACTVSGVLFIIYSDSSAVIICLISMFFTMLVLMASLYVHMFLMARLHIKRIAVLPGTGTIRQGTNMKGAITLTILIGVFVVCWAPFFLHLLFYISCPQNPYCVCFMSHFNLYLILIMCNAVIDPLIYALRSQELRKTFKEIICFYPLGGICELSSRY

[4] = biological target: mouse melanocortin-3 receptor (mouse) (UniProt P33033); remark: listed apart in the source
[5] = biological target: mouse melanocortin-4 receptor (mouse) (UniProt P56450); remark: listed apart in the source
[6] = biological target: mouse melanocortin-5 receptor (mouse) (UniProt P41149)
Chain of mouse melanocortin-5 receptor (mouse) (P41149 whole entry): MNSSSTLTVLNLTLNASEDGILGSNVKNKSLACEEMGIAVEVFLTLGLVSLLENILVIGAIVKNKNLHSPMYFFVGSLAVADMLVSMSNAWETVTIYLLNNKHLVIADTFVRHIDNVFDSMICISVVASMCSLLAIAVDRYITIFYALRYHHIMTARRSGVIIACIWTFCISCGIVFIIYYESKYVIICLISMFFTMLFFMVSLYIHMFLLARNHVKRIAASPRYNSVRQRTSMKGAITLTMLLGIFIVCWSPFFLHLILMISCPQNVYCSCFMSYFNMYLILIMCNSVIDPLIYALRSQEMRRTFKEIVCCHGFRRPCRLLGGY

Chain of mouse melanocortin-1 receptor (mouse) (Q01727 whole entry): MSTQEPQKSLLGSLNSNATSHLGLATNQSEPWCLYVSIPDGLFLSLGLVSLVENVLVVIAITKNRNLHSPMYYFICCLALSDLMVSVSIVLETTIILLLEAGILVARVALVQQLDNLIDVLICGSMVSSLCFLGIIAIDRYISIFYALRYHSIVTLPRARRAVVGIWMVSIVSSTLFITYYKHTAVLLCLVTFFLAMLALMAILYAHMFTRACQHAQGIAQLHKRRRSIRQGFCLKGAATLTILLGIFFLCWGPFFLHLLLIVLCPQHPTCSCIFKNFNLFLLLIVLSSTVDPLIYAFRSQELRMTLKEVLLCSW
Chain of mouse melanocortin-3 receptor (mouse) (P33033 whole entry): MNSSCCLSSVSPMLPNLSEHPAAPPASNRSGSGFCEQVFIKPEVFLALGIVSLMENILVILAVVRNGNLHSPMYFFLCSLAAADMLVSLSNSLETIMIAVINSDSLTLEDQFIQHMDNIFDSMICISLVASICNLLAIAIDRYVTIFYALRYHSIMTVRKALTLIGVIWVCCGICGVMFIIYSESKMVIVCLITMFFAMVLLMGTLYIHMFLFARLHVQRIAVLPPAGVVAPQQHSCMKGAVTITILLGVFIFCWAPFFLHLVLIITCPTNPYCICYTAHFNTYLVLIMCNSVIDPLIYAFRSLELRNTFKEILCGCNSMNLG

Substance | % of maximal NDP-MSH response at 100 μM, cAMP AlphaScreen [1] [%] | agonist EC50, cAMP AlphaScreen [2] [µM] | agonist EC50, cAMP AlphaScreen [3] [µM] | pA2, antagonism of NDP-MSH at mMC3R, Schild analysis, cAMP AlphaScreen [4] | pA2, antagonism of NDP-MSH at mMC4R, Schild analysis, cAMP AlphaScreen [5] | % of maximal NDP-MSH response at 100 μM, cAMP AlphaScreen [2] [%] | % of maximal NDP-MSH response at 100 μM, cAMP AlphaScreen [3] [%] | agonist EC50, cAMP AlphaScreen [6] [µM] | antagonist Ki = 10^-(pA2), NDP-MSH at mMC3R, cAMP AlphaScreen [4] [µM] | antagonist Ki = 10^-(pA2), NDP-MSH at mMC4R, cAMP AlphaScreen [5] [nM] | % receptor activation relative to NDP-MSH (partial agonist), cAMP AlphaScreen [1] [%] | apparent EC50 (partial agonist), cAMP AlphaScreen [1] [µM] | % of maximal NDP-MSH response at 100 μM, cAMP AlphaScreen [6] [%] | agonist EC50, cAMP AlphaScreen [1] [µM]
Ac-DNal(2’)-DNal(2’)-DPhe(pI)-Arg-NH2 (peptide) | 25 | > 100 | > 100 | < 5.5 | < 5.5 |  |  |  |  |  |  |  |  | 
Ac-[dPhe(4-I)]RW[d2Nal]-NH2 | 45 |  |  |  | 7.6 | 25 | 35 | > 100 |  |  |  |  |  | 
Ac-DNal(2’)-DNal(2’)-DNal(2’)-DLys-NH2 (peptide) | 55 | > 100 | > 100 | < 5.5 | < 5.5 |  |  | > 100 |  |  |  |  |  | 
Ac-DNal(2’)-DNal(2’)-Trp-DLys-NH2 (peptide) | 25 | > 100 |  | 5.8 | 6.7 |  | 30 | > 100 | 1.6 | 200 |  |  |  | 
Ac-DNal(2’)-Arg-DNal(2’)-DNal(2’)-NH2 (peptide) |  |  |  | 5.7 | 6.3 | 50 | 45 |  |  |  | 85 | 5 | 20 | 
Ac-DPhe(pI)-DNal(2’)-Trp-Arg-NH2 (peptide) |  | > 100 | > 100 |  | 5.6 |  |  | > 100 |  |  |  |  |  | > 100
Ac-DNal(2’)-Arg-DNal(2’)-Arg-NH2 (peptide) |  | > 100 | > 100 | 6.1 | 8.3 |  |  | > 100 |  |  | 60 | 1 |  | 
Ac-DPhe(pI)-DNal(2’)-DNal(2’)-DLys-NH2 (peptide) | 35 | > 100 | > 100 |  | 6.3 |  |  | > 100 |  |  |  |  |  | 
Ac-[d2Nal]RW[dK]-NH2 |  | > 100 | > 100 | 5.5 | 7.7 |  |  | > 100 |  |  |  |  |  | > 100
Ac-DNal(2’)-DNal(2’)-DPhe(pI)-DLys-NH2 (peptide) | 20 | > 100 | > 100 | < 5.5 | < 5.5 |  |  | > 100 |  |  |  |  |  | 
Ac-[d2Nal][d2Nal]WR-NH2 | 45 |  |  | < 5.5 | < 5.5 | 35 | 60 |  |  |  |  |  | 45 | 
Ac-DNal(2’)-Arg-DPhe(pI)-Arg-NH2 (peptide) |  | > 100 | > 100 | 7.1 | 8.6 |  |  | > 100 |  |  |  |  |  | 0.04
Ac-DNal(2’)-Arg-DPhe(pI)-DNal(2’)-NH2 (peptide) |  |  |  | 6.1 | 6.5 | 40 | 30 |  |  |  |  |  | 40 | 
Ac-DNal(2’)-Arg-DPhe(pI)-DLys-NH2 (peptide) |  | > 100 | > 100 | 6.9 | 8.5 |  |  | > 100 |  |  |  |  |  | 0.22
Ac-DNal(2’)-DNal(2’)-Nal(2’)-Arg-NH2 (peptide) | 55 | > 100 | > 100 |  |  |  |  |  |  |  |  |  | 40 | 
Ac-[dPhe(4-I)]R[2Nal][dK]-NH2 |  | > 100 | > 100 | 6.8 |  |  |  | > 100 |  |  |  |  |  | > 100
Ac-DPhe(pI)-DNal(2’)-DPhe(pI)-DLys-NH2 (peptide) |  | > 100 | > 100 |  |  |  |  | > 100 |  |  |  |  |  | > 100

Substance | % of maximal NDP-MSH response at 100 μM, cAMP AlphaScreen [1] [%] | agonist EC50, cAMP AlphaScreen [2] [µM] | agonist EC50, cAMP AlphaScreen [3] [µM] | pA2, antagonism of NDP-MSH at mMC3R, Schild analysis, cAMP AlphaScreen [4] | pA2, antagonism of NDP-MSH at mMC4R, Schild analysis, cAMP AlphaScreen [5] | % of maximal NDP-MSH response at 100 μM, cAMP AlphaScreen [2] [%] | % of maximal NDP-MSH response at 100 μM, cAMP AlphaScreen [3] [%] | agonist EC50, cAMP AlphaScreen [6] [µM] | antagonist Ki = 10^-(pA2), NDP-MSH at mMC3R, cAMP AlphaScreen [4] [µM] | antagonist Ki = 10^-(pA2), NDP-MSH at mMC4R, cAMP AlphaScreen [5] [nM] | % receptor activation relative to NDP-MSH (partial agonist), cAMP AlphaScreen [1] [%] | apparent EC50 (partial agonist), cAMP AlphaScreen [1] [µM] | % of maximal NDP-MSH response at 100 μM, cAMP AlphaScreen [6] [%] | agonist EC50, cAMP AlphaScreen [1] [µM]
Ac-DPhe(pI)-DNal(2’)-DPhe(pI)-Arg-NH2 (peptide) | 40 | > 100 | > 100 |  |  |  |  | 0.13 |  |  |  |  |  | 
Ac-DPhe(pI)-Arg-DPhe(pI)-DNal(2’)-NH2 (peptide) |  |  |  | 6.3 | 6.6 | 40 | 40 |  |  |  |  |  | 65 | 1.1
Ac-[d2Nal]RW[d2Nal]-NH2 | 40 |  |  | 5.7 |  | 40 | 30 | > 100 |  |  |  |  |  | 
Ac-DPhe(pI)-DNal(2’)-DNal(2’)-Arg-NH2 (peptide) |  | > 100 | > 100 |  |  |  |  | 0.23 |  |  |  |  |  | > 100
Ac-Phe(pI)-Nal(2’)-Phe(pI)-Arg-NH2 (peptide) | 60 |  |  |  |  |  |  |  |  |  |  |  |  | 
Ac-[d2Nal]R[2Nal]R-NH2 |  | > 100 |  |  | 8.8 |  | 30 | > 100 |  |  |  |  |  | > 100
Ac-DPhe(pI)-DNal(2’)-Nal(2’)-Arg-NH2 (peptide) | 20 | > 100 | > 100 |  | 5.8 |  |  | 0.8 |  |  |  |  |  | 
Ac-DNal(2’)-DNal(2’)-Nal(2’)-DLys-NH2 (peptide) | 45 | > 100 | > 100 |  |  |  |  | > 100 |  |  |  |  |  | 
Ac-DNal(2’)-DNal(2’)-DNal(2’)-Arg-NH2 (peptide) | 30 |  |  | < 5.5 | < 5.5 | 35 | 25 | 0.13 |  |  |  |  |  | 
Ac-DPhe(pI)-Arg-DNal(2’)-Arg-NH2 (peptide) |  | > 100 | > 100 | 6.9 | 8.3 |  |  | > 100 |  |  | 65 | 0.4 |  | 
Ac-DPhe(pI)-Arg-DNal(2’)-DNal(2’)-NH2 (peptide) | 80 |  |  | 6.1 | 6.7 | 45 | 45 |  |  |  |  |  | 20 | 
Ac-[dPhe(4-I)]R[2Nal]R-NH2 | 25 | > 100 |  | 7.8 |  |  | 25 | > 100 |  | 1 |  |  |  | 
Ac-[d2Nal]RWR-NH2 | 40 | > 100 |  | 6.8 | 8.3 |  | 20 | > 100 |  |  |  |  |  | 
Ac-[dPhe(4-I)]R[2Nal][d2Nal]-NH2 | 55 | > 100 | > 100 |  | 6.7 |  |  | > 100 |  |  |  |  |  | 
Ac-DPhe(pI)-DNal(2’)-Nal(2’)-DLys-NH2 (peptide) | 40 |  | > 100 |  |  | 20 |  |  |  |  |  |  | 50 | 
Ac-DNal(2’)-Arg-DNal(2’)-DLys-NH2 (peptide) |  | > 100 | > 100 |  | 8.2 |  |  | > 100 |  |  | 30 | 6 |  | 
Ac-DNal(2’)-Arg-Nal(2’)-DNal(2’)-NH2 (peptide) | 40 |  |  |  | 6.7 | 30 | 30 |  |  |  |  |  | 25 | 
